The source of these data is US20260285997 (published 2026).

The target in assay [1] is T1, FLAG-BAP (FLAG tag fused to bacterial alkaline phosphatase). Put plainly: SPR. On the technique in general: SPR reads the build-up and loss of mass on a sensor chip optically.
Assay [2] addresses T2, FLAG tag antigen.
T2 chain: DYKDDDDK
In words: SPR.

Assay [3] has as its target T1, FLAG-BAP. Put plainly: SPR. The source holds these as a separate data set.
For assay [4], the target named is T2, FLAG tag antigen. Put plainly: SPR bivalent.

Values joined by “and” are separate entries in the source; they are usually repeats but may differ in a detail not shown here. Equal entries are not always repeated. Where two headings read alike, the source gives them in different places.

B1: BEAT 2a2 FLAG arm (antibody)
chain: DVVMTQSPDSLAVSLGERATINCKSSQSIVHRNGNTYLEWYQQKPGQPPKLLIYKVSNRFSGVPDRFSGSGSGTDFTLTISSLQAEDVAVYYCFQGSHVPYTFGGGTKLEIKGGGGSGGGGSGGGGSQVQLVQSGAEVKKPGASVKVSCKASGYSFTTYTIHWVRQAPGQGLEWIGYINPSSGYAAYNQKFQGRVTLTADKSTSTAYMELSSLRSEDTAVYYCAREKFYGYDYWGQGTTVTVSS
Consider B1, for which, in the assay with FLAG-BAP [1], the Kd was 51.9 nM and 21.7 nM.

B2: BEAT 2a4 FLAG arm (antibody)
chain: DVVMTQSPDSLAVSLGERATINCKSSQSIVHRNGNTYLEWYQQKPGQPPKLLIYKVSNRFSGVPDRFSGSGSGTDFTLTISSLQAEDVAVYYCFQGSHVPYTFGGGTKLEIKGGGGSGGGGSGGGGSQVQLVQSGAEVKKPGASVKVSCKASGYSFTTYTIHWVRQAPGQGLEWIGYINPSSGYAAYNQKFQGRVTLTADKSTSTAYMELSSLRSEDTAVYYCAREKFYGYDYWGQGTTVTVSS
In the case of B2, the Kd with FLAG-BAP [1] is 13.3 nM and 17 nM.

B3: V7 scFv (anti-FLAG) (antibody)
chain: DVVMTQSPDSLAVSLGERATINCKSSQSIVHRNGNTYLEWYQLKPGQPPKLLIYKVSNRFSGVPDRFSGSGSGTDFTLTISSLQAEDVAVYYCFQGSHVPYTFGGGTKLEIKGGGGSGGGGSGGGGSQVQLVQSGAEVKKPGASVKVSCKASGYSFTTYTMHWVRQAPGQGLEWMGYINPSSGYAAYNQKFQGRVTMTADKSTSTAYMELSSLRSEDTAVYYCAREKFYGYDYWGQGTTVTVSS
B3 displayed a Kd with FLAG tag antigen [2] of 15 nM.

B4: V4 scFv (anti-FLAG) (antibody)
chain: DVVMTQSPDSLAVSLGERATINCKSSQSIVHRNGNTYLEWYQQKPGQPPKLLIYKVSNRFSGVPDRFSGSGSGTDFTLTISSLQAEDVAVYYCFQGSHVPYTFGGGTKLEIKGGGGSGGGGSGGGGSQVQLVQSGAEVKKPGASVKVSCKASGYSFTTYTIHWVRQAPGQGLEWIGYINPSSGYAAYNQKFQGRVTLTADKSTSTAYMELSSLRSEDTAVYYCAREKFYGYDYWGQGTTVTVSS
In turn, B4 displayed a Kd with FLAG tag antigen [2] of 22 nM.

B5: BEAT 2a3 FLAG arm (antibody)
chain: DVVMTQSPDSLAVSLGERATINCKSSQSIVHRNGNTYLEWYQQKPGQPPKLLIYKVSNRFSGVPDRFSGSGSGTDFTLTISSLQAEDVAVYYCFQGSHVPYTFGGGTKLEIKGGGGSGGGGSGGGGSQVQLVQSGAEVKKPGASVKVSCKASGYSFTTYTIHWVRQAPGQGLEWIGYINPSSGYAAYNQKFQGRVTLTADKSTSTAYMELSSLRSEDTAVYYCAREKFYGYDYWGQGTTVTVSS
As to B5, in the assay with FLAG-BAP [1], the Kd was 5.13 nM and 2.63 nM and 3.04 nM.

B6: V4 IgG (Anti-FLAG-M2-V4) (antibody, V domains shown)
VH: QVQLVQSGAEVKKPGASVKVSCKASGYSFTTYTIHWVRQAPGQGLEWIGYINPSSGYAAYNQKFQGRVTLTADKSTSTAYMELSSLRSEDTAVYYCAREKFYGYDYWGQGTTVTVSS
VL: DVVMTQSPDSLAVSLGERATINCKSSQSIVHRNGNTYLEWYQQKPGQPPKLLIYKVSNRFSGVPDRFSGSGSGTDFTLTISSLQAEDVAVYYCFQGSHVPYTFGGGTKLEIK
As for B6, the Kd with FLAG-BAP [3] was 34.3 nM and 20.7 nM; in the assay with FLAG-BAP [1] it was 34.3 nM and 20.7 nM; with FLAG tag antigen [4], 0.91 nM.

B7: V7 IgG (Anti-FLAG-M2-V7) (antibody, V domains shown)
VH: QVQLVQSGAEVKKPGASVKVSCKASGYSFTTYTMHWVRQAPGQGLEWMGYINPSSGYAAYNQKFQGRVTMTADKSTSTAYMELSSLRSEDTAVYYCAREKFYGYDYWGQGTTVTVSS
VL: DVVMTQSPDSLAVSLGERATINCKSSQSIVHRNGNTYLEWYQLKPGQPPKLLIYKVSNRFSGVPDRFSGSGSGTDFTLTISSLQAEDVAVYYCFQGSHVPYTFGGGTKLEIK
For the molecule B7, the Kd was 23.2 nM and 27.7 nM in the assay with FLAG-BAP [3]; 27.7 nM and 23.2 nM in the assay with FLAG-BAP [1]; 1.3 nM with FLAG tag antigen [4].

B8: Parental anti-FLAG (chimeric) (antibody, V domains shown)
VH: QVQLQQSAGELARPGASVKMSCKASGYSFTTYTIHWVKQRPGQGLEWIGYINPSSGYAAYNQNFKDETTLTADKSSSTAYMQLSSLTSEDSAVYYCAREKFYGYDYWGQGTTLTVSS
VL: DVLMTQLPLSLPVSLGDQASISCRSSQSIVHRNGNTYLEWYLLKPGQSPKLLIYKVSNRFSGVPDRFSGSGSGTDFTLKISRVEAEDLGVYYCFQGSHVPYTFGGGTKLEIK
As for B8, the Kd with FLAG tag antigen [4] was 0.96 nM.

B9: BEAT 2a5 FLAG arm (antibody)
chain: QVQLVQSGAEVKKPGASVKVSCKASGYSFTTYTIHWVRQAPGQGLEWIGYINPSSGYAAYNQKFQGRVTLTADKSTSTAYMELSSLRSEDTAVYYCAREKFYGYDYWGQGTTVTVSSGGGGSGGGGSGGGGSGGGGASDVVMTQSPDSLAVSLGERATINCKSSQSIVHRNGNTYLEWYQQKPGQPPKLLIYKVSNRFSGVPDRFSGSGSGTDFTLTISSLQAEDVAVYYCFQGSHVPYTFGGGTKLEIK
Regarding B9, the Kd with FLAG-BAP [1] is 19.5 nM and 18.1 nM.

B10: BEAT 2a6 FLAG arm (antibody)
chain: QVQLVQSGAEVKKPGASVKVSCKASGYSFTTYTIHWVRQAPGQGLEWIGYINPSSGYAAYNQKFQGRVTLTADKSTSTAYMELSSLRSEDTAVYYCAREKFYGYDYWGQGTTVTVSSGGGGSGGGGSGGGGSGGGGASDVVMTQSPDSLAVSLGERATINCKSSQSIVHRNGNTYLEWYQQKPGQPPKLLIYKVSNRFSGVPDRFSGSGSGTDFTLTISSLQAEDVAVYYCFQGSHVPYTFGGGTKLEIK
As for B10, the Kd with FLAG-BAP [1] was 35.1 nM and 32.6 nM.

B11: BEAT 2a8 FLAG arm (antibody)
chain: QVQLVQSGAEVKKPGASVKVSCKASGYSFTTYTIHWVRQAPGQGLEWIGYINPSSGYAAYNQKFQGRVTLTADKSTSTAYMELSSLRSEDTAVYYCAREKFYGYDYWGQGTTVTVSSGGGGSGGGGSGGGGSGGGGASDVVMTQSPDSLAVSLGERATINCKSSQSIVHRNGNTYLEWYQQKPGQPPKLLIYKVSNRFSGVPDRFSGSGSGTDFTLTISSLQAEDVAVYYCFQGSHVPYTFGGGTKLEIK
Take B11: the Kd with FLAG-BAP [1] was 10.8 nM and 9.09 nM.
